According to the supplement of paper PMC10567573:
± gives the standard deviation.

Assay: protein stability index of a GFP-peptide fusion (GPS, HEK-293T) (PSI 1-6); higher = more stable
Conditions: c terminus: a fixed tail appended
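Note: 24-mer peptide tiles fused after GFP, lentivirally expressed, FACS-sorted into six equal bins by GFP/DsRed ratio, decoded by Illumina sequencing, PSI is the read-weighted mean bin number.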

Sequence	protein stability index (treatment: DMSO)	protein stability index (treatment: MLN4924 1 uM, 8 h)
EDGEKAAREVKLLLLGAGESGKST [GNAI1]	4.78 ± 0.25	5.28 ± 0.19
LPCTSRCPRPCRESAFKLSTGTSR [SCNN1D]	2.64 ± 0.99	2.9 ± 0.38
KRIKVPDYKDRSVFGVPLTVNVQR [DLC1]	3.02 ± 0.42	3.09 ± 0.35
NEIQCTGNEKSIIDCKFNAESQGC [LOXL2]	4.88 ± 0.36	4.79 ± 0.58
GPSLPSKRESPGVGGGSGDEASAA [ZBTB22]	5.5 ± 0.34	5.64 ± 0.48
TRLAFELFAEEQAEGPNRLLYKDG [LPCAT4]	3.85 ± 0.19	4.02 ± 0.2
IVTLRHVLAAKERRCGELKRKLGL [TPD52L3]	2.2 ± 0.11	2.18 ± 0.13
DKDKSDDRMARPSGRSGHNTRGTG [CSNK1G3]	5.6 ± 0.29	5.43 ± 0.52
VCSDYASGYHYGVWSCEGCKAFFK [ESR2]	2.33 ± 0.35	2.56 ± 0.34
NQLVGPESIAHIGDVMFTGTADGR [APMAP]	4.77 ± 0.31	4.69 ± 0.08
IRERPAAIPIEIKSIDDTSNFDDF [STK38L]	4.31 ± 0.3	4.92 ± 0.19
PGYPKMIAHDFPGIGHKVDAVFMK [MMP1]	2.75 ± 0.17	3.02 ± 0.33
AAPFPSPAPASPAISVVGVSAGGH [TFE3]	4.24 ± 0.35	4.16 ± 0.38
GGTSWTAYSLNKIHAYNLGTNAWE [KLHDC10]	2.12 ± 0.34	2.08 ± 0.3
VFDLRMMVANILNNEAFMNQEITK [RHOBTB2]	2.72 ± 0.47	2.43 ± 0.46
EDLLAKEKDNSRRMLTDKEREMAE [LMNB1]	5.6 ± 0.31	5.65 ± 0.28
VSASRDKTLRVWDLKDDGNMMKVL [WSB1]	3.2 ± 0.09	3.35 ± 0.25
ADKCVCGPSAPPAPTPPSLSQRVM [TIAF1]	4.15 ± 0.24	4.42 ± 0.35
LDPDTMHARLRLSADRLTVRCGLL [TRIM14]	2.51 ± 0.16	2.48 ± 0.25
AQSAGTQQVAAVSSVSPATPFQSV [BRD3]	4.42 ± 0.19	4.37 ± 0.11
MFRNHLCLVFELLSYNLYDLLRNT [DYRK1B]	2.54 ± 0.23	2.85 ± 0.72
HDGEDVACPQGGVQYGAGVACSET [LOXL2]	4.99 ± 0.31	5.42 ± 0.32

Sequence	protein stability index (treatment: DMSO)	protein stability index (treatment: MLN4924 1 uM, 8 h)
TFLKAFPLMGETQERERVLTHFSR [PSD2]	2.45 ± 0.21	2.63 ± 0.39
QGCPGAKKHEFLTSVLDALSTDMV [SMOC2]	2.68 ± 0.26	3.07 ± 0.27
SDELSWIIELLEKDGMAFQEALDP [ELF3]	2.62 ± 0.34	3.02 ± 0.26
ITRVLYEVFIEWGISAKVFGATTN [ZBED1]	3.15 ± 0.88	3.04 ± 0.2
SNIKFCSFHPLQYIGFYGKETTNT [PDS5B]	2.1 ± 0.47	2.29 ± 0.16
MQCPVIAVNSGGPLESIDHSVTGF [ALG2]	2.83 ± 0.42	3.26 ± 0.3
ADTNSDRLFTVNDVKVGGSKYGII [DCAF4]	3.01 ± 0.21	3.02 ± 0.28
DLLHNVSQNIAAETRAEDPPWFEG [DFFB]	3.753 ± 0.011	3.85 ± 0.13
AMAMGTPSTTERISTSGQAGTSSH [PXN]	4.86 ± 0.31	4.98 ± 0.1
LATLDPLALDREPPPHLLPEKHQV [WDR88]	4.06 ± 0.22	4.24 ± 0.16
KTSVEKANAQIQILTRSWEEVSTL [CD207]	3.48 ± 0.14	3.77 ± 0.26
IVLDRALHIPMYFFLAILSCSEIC [OR10K2]	3.1 ± 0.18	3.19 ± 0.29
AGKWRSYKGELFDKTPVLLTDYPV [MYORG]	2.32 ± 0.21	2.43 ± 0.25
GLPGSGKTTLARQLQHDFPRALIF [N4BP2L1]	2.25 ± 0.18	2.56 ± 0.23
EETIASLQMEVCRLKKEEEDRIVT [CEP70]	4.65 ± 0.072	4.8 ± 0.32
NNADLCLTDDKQVLNTQGQKTSGQ [DLC1]	5.18 ± 0.27	5.16 ± 0.23
GYVSQQGGQRSTPLIIAARNGHAK [FEM1B]	3.74 ± 0.15	3.8 ± 0.34
HMVSDGSWVVRVQAAKLLGSMEQV [INTS4]	2.48 ± 0.74	2.1 ± 0.21
VPLQLSAHWQCGATLTQVSVEYGY [FCHO1]	2.76 ± 0.76	2.6 ± 0.67
ALEQREQDAVDQVKVIMDALDERA [TRIM29]	5.33 ± 0.097	5.31 ± 0.29
IQIAFEEVPQLPPRASISHVTCVD [C2CD2L]	2.39 ± 0.16	2.46 ± 0.23
NFLIGRQGNKKEHVIHIIDFGLAK [CSNK1G1]	2.45 ± 0.66	1.89 ± 0.39

Sequence	protein stability index (treatment: DMSO)	protein stability index (treatment: MLN4924 1 uM, 8 h)
YSAEQFCVSRNSHLTSVTSESEQE [CD207]	5.23 ± 0.21	5.13 ± 0.32
AHSNEILIFSVQPKSLVRLSLEAV [KLHDC2]	3.01 ± 0.48	2.6 ± 0.12
SLIRKHAQTFIALCATDFKFAMYP [CCND2]	3.01 ± 0.18	2.97 ± 0.51
NSDMQILTASGDGTCALWDVESGQ [GNB5]	4.81 ± 0.085	4.61 ± 0.36
VLCEAAFPKKLAFAYLEDLHSEFD [SEC22B]	2.14 ± 0.28	2.31 ± 0.12
LKVVHELPACTLCAGPLEDAVTIP [TRIM15]	2.76 ± 0.13	3.15 ± 0.26
ANTMEHLSLLDNNIPGNSTLITAV [FBXO33]	3.16 ± 0.17	3.25 ± 0.33
PPLNPTSWWADLRALARNLIFGLI [SPNS1]	4.75 ± 0.3	4.74 ± 0.32
GGDLMPAPADPTAREGLAAPPRRL [FCHO1]	5.19 ± 0.33	5.15 ± 0.23
RTSLQYGIMCLKRLNYDRKELEKR [PPFIA4]	2.88 ± 0.45	2.83 ± 0.29
ELEMIGFIENNVSKLSLLLNDISR [TRIP13]	2.2 ± 0.31	2.63 ± 0.41
TKEGGMLAYYEVCSWKGATKQRIQ [CHIT1]	2.26 ± 0.53	2.91 ± 0.65
SGVSDYDYLDLDKMSLYSEADSGY [TRIM9]	4.14 ± 0.19	3.76 ± 0.46
IWKLNLQTFQWVKLPATMPEPVYF [KLHDC10]	2.82 ± 0.7	2.63 ± 0.33
LASGRIILILEGGYNLTSISESMA [HDAC6]	2.63 ± 0.14	2.82 ± 0.79
PEPWPGGCTGDEAESRGHSKGWGR [MYCL]	4.18 ± 0.12	4.46 ± 0.56
TRNSPRGCRLPSISSTTCGRQLEK [SPATS1]	3.81 ± 0.26	4 ± 0.18
YWKLQIFFTNVIQALGEHLKLRQQ [CCNC]	2.66 ± 0.84	2.46 ± 0.38
WKSHLRNVQRPLLQAPFLPPKPPP [RHOBTB2]	3.03 ± 0.21	3.15 ± 0.32
EVRAKFKFSLLNAKREETKAMESQ [SPOPL]	4.06 ± 0.29	3.97 ± 0.33
ELALFQMSVLWLEHDRETRMQYAP [KLHL14]	2.44 ± 0.58	2.46 ± 0.34
